Test results published in patent publication US20050100965A1 (published 2005).
Values joined by “and” are separate entries in the source; they are usually repeats but may differ in a detail not shown here. Equal entries are not always repeated.

B1: HuMAb 550 (antibody, V domains shown)
VH: ZVQLQESGPGLVKPSQTLSLTCTVSGGSINSGGYYWSWIRQHPGKGLEWIGHISYRGTTYSNPSLKSRVTISVDTSKNQFSLKLSSVTAADTAVYYCARDRGGGFFDLWGRGTLVTVSS
VL: EIVLTQSPGTLSLSPGERATLSCRASQSVNSGYLAWYQQKPGQAPRLLIYGVSIRATDIPDRFSGSGSATDFTLTISRLEPEDFAVYYCQQYGFSPLTFGGGTRVEINR
notes: KG-1 IC50 printed as TBD
B2: HuMAb 2.13.1 (antibody, V domains shown)
VH: ZVQLQESGPGLVTPSQTLSLTCTVSGGSISSGGHYWTWIRQHPGKGLEWIGYIYYSGSTYYNPSLKSRLTISVDTSKNQFSLKLSSVAAADTAVYYCARDRGGSGSYWDYWGQGTLVTVSS
VL: EIVLTQSPGTLSLSPGERATLSCRGSRSVSSGYLAWYQQKPGQAPRLLIYGVSIRATGIPDRFSGSGSGTDFTLTISRLEPEDFAVYYCQQYHGSPLTFGGGTKVEIKR
B3: HuMAb 215 (antibody, V domains shown)
VH: ZVQLQESGPGLVKPSQTLSLTCTVSGGSINSGDYYWSWIRQHPGKGLEWIGHISYRGTTYYNPSLKSRVTISVDTSKNQFSLKLSSVTAADTAVYCCARDRGGGFFDLWGRGTLVTVSS
VL: EIVLTQSPGTLSLSPGERATLSCRASRSLSSGYLAWYQQKPGQAPRLLIYGASIRATGIPDRFSGSGSATDFTLTISRLEPEDFAVYYCQQYNYSPLTFGGGTRVEINR
B4: HuMAb 413 (antibody, V domains shown)
VH: ZTQLQESGPGLVKPSETLSLTCTVSGGSISSRVYYWGWIRQPPGKGLEWIGSIYYSGSTYYSPSLKSRVTISVDTSKNQFSLKLSSVTAADTAIYYCAREDSSAWVFEHWGQGTLVTVSS
VL: EIVLTQSPDTLSLSPGERATLSCRASQILSRNYLAWYQQKPGQAPRLLIYGISIRATGIPDRFSGSGSGADFTLTINRLEPEDFAVYYCQHYDNSLCSFGQGTKLEVKR
B5: HuMAb 435 (antibody, V domains shown)
VH: ZLQLQESGPGLVKPSETLSLTCTVSGGSIDSRIYYWGWIRQPPGKGLEWIGSIYYRGSTYYNPSLKSRVTISVDTPKNQFSLKLNSVTAADTAVYYCAREDSSAWVFDYWGQGTLATVSS
VL: EIVLTQSPGTLSLSPGERATLSCRASQSVRNNYLNWYQQKPGQAPRLLIYGAFSRATGIPDRFSGSGSGTDFTLTISSLEPEDFVVYYCQQYGNSIDSFGQGTKLEINR
B6: HuMAb 351 (antibody, V domains shown)
VH: ZVQLVESGGGVVQPGRSLRLSCAASGFTFSHYGMHWVRQAPGKGLEWVAVISYDGRNKYYVDSVKGRFTISRDNSKNTLYLQMNSLRAEDTAVFYCAREKGGSGWPPFYYYYGMDVWGQGTTVTVSS
VL: DIVMTQTPLSLSVTPGQPASISCKSSQNLLYSDGETYLCWYLQKPGQPPQLLIYEVSNRFSGVPERFSGSGSGTDFTLKISRVEAEDVGIYYCMQNVQLPLTFGGGTRVEIKR
B7: HuMAb 268 (antibody, V domains shown)
VH: ZVQLVESGGGVVQPGRSLRLSCAASGFTFRNYGLHWVRQAPGKGLEWVAVIWYDGSNKYYADSVKGRFTISRDNSKNTLYLQMNSLRAEDTAVYYCARESYYYYGMDVWGQGTTVTVSS
VL: EIVMTQSPATLSVSPGERATLSCRASQSFNSNLVWYQQKPGQAPRLLIYGASTRATGIPARFSGSGSGTEFTLTISSLQSEDFAVYYCQQYNNWTWTFGQGTKVEIKR
B8: HuMAb 2.5.1 (antibody, V domains shown)
VH: ZVQLVQSGTEVKKPGESLKISCKGSGYTVTSYWIGWVRQMPGKGLEWMGFIYPGDSETRYSPTFQGQVTISADKSFNTAFLQWSSLKASDTAMYYCARVGSGWYPYTFDIWGQGTMVTVSS
VL: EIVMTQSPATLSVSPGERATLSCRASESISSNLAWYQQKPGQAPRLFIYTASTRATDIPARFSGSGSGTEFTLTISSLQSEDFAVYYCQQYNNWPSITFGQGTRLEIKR

Each binder was assayed against T1, Biotinylated rhuIL-18 (biot-IL-18) (human, UniProt Q14116 37-193, NEM-treated cysteines; biotin on lysine residues (mixture with 1, 2, 3 or 4 biotins per huIL-18)) (assay: biotinylated IL-18 ELISA, hybridoma or B cell supernatant).
T1 construct: also called biotinylated NEM-huIL-18; biotinylated IL-18
From the text: An ELISA was developed to screen for antibodies that bind human IL-18. […] Hybridoma or B cell supernatants were applied and IL-18-bound antibodies were detected using HRP-conjugated anti-human IgGs, following standard ELISA protocols well known in the art.
B1: binds.

The binders below were run against NEM-huIL-18 (human, UniProt Q14116 37-193, cysteines treated with N-ethyl maleiamide (NEM)) (assay: cell-based or functional assay).
B2 was tested, and the “KG-1 Assays (IC50, M)” value was 2e-10 M and 1e-10 M and 7e-11 M. B3 was tested, and the “KG-1 Assays (IC50, M)” value was 1e-10 M and 3e-10 M. For B4, the “KG-1 Assays (IC50, M)” value was 1e-09 M and 7e-10 M. B5 was tested, and the “KG-1 Assays (IC50, M)” value was 8e-10 M and 7e-10 M and 4e-10 M. B6 was tested, and the “KG-1 Assays (IC50, M)” value was 2e-10 M. With B7 the “KG-1 Assays (IC50, M)” value was 7e-09 M. In the case of B8, the “KG-1 Assays (IC50, M)” value is reported as 3e-10 M and 4e-10 M.
